Experimental data as given in PMC4790447.

Molecular target: RLC-depleted porcine cardiac β-myosin (porcine) (UniProt P79293)
Assay: co-sedimentation

Binder | percent reconstitution (densitometry)
wild-type human ventricular regulatory light chain, dephosphorylated (mock phosphorylation reaction) (natural protein) MAPKKAKKRAGGANSNVFSMFEQTQIQEFKEAFTIMDQNRDGFIDKNDLRDTFAALGRVNVKNEEIDEMIKEAPGPINFTVFLTMFGEKLKGADPEETILNAFKVFDPEGKGVLKADYVREMLTTQAERFSKEEVDQMFAAFPPDVTGNLDYKNLVHIITHGEEKD | 108%
N47K human ventricular regulatory light chain, phosphorylated by MLCK (natural protein, phosphoserine at 15 (98.4 ± 1.6% phosphorylated)) MAPKKAKKRAGGANSNVFSMFEQTQIQEFKEAFTIMDQNRDGFIDKKDLRDTFAALGRVNVKNEEIDEMIKEAPGPINFTVFLTMFGEKLKGADPEETILNAFKVFDPEGKGVLKADYVREMLTTQAERFSKEEVDQMFAAFPPDVTGNLDYKNLVHIITHGEEKD | 96.2%
R58Q human ventricular regulatory light chain, dephosphorylated (mock phosphorylation reaction) (natural protein) MAPKKAKKRAGGANSNVFSMFEQTQIQEFKEAFTIMDQNRDGFIDKNDLRDTFAALGQVNVKNEEIDEMIKEAPGPINFTVFLTMFGEKLKGADPEETILNAFKVFDPEGKGVLKADYVREMLTTQAERFSKEEVDQMFAAFPPDVTGNLDYKNLVHIITHGEEKD | 97.8%
R58Q human ventricular regulatory light chain, phosphorylated by MLCK (natural protein, phosphoserine at 15 (87.4 ± 0.8% phosphorylated; full phosphorylation never accomplished)) MAPKKAKKRAGGANSNVFSMFEQTQIQEFKEAFTIMDQNRDGFIDKNDLRDTFAALGQVNVKNEEIDEMIKEAPGPINFTVFLTMFGEKLKGADPEETILNAFKVFDPEGKGVLKADYVREMLTTQAERFSKEEVDQMFAAFPPDVTGNLDYKNLVHIITHGEEKD | 107%
wild-type human ventricular regulatory light chain, phosphorylated by MLCK (natural protein, phosphoserine at 15 (95.7 ± 3.6% phosphorylated)) MAPKKAKKRAGGANSNVFSMFEQTQIQEFKEAFTIMDQNRDGFIDKNDLRDTFAALGRVNVKNEEIDEMIKEAPGPINFTVFLTMFGEKLKGADPEETILNAFKVFDPEGKGVLKADYVREMLTTQAERFSKEEVDQMFAAFPPDVTGNLDYKNLVHIITHGEEKD | 109%
N47K human ventricular regulatory light chain, dephosphorylated (mock phosphorylation reaction) (natural protein) MAPKKAKKRAGGANSNVFSMFEQTQIQEFKEAFTIMDQNRDGFIDKKDLRDTFAALGRVNVKNEEIDEMIKEAPGPINFTVFLTMFGEKLKGADPEETILNAFKVFDPEGKGVLKADYVREMLTTQAERFSKEEVDQMFAAFPPDVTGNLDYKNLVHIITHGEEKD | 106%
